According to patent US20260193293A1 (UNIVERSITY OF COPENHAGEN, published 2026):
Non-standard residues stand in square brackets, D forms with d. 2Nal = N[C@@H](Cc1ccc2ccccc2c1)C(=O)O

What was measured:
[1] = biological target: T1, native full-length GB1a subunit from mouse brain membrane fraction (mouse, UniProt Q9WV18 20-960); assay: pull-down from mouse brain lysate, immunoblot
T1 construct: Detected by immunoblot after pull-down from brain lysate; also called native GB1a; native SD
Experimental: Preparation of whole-brain lysates. Dissected adult mouse brains were placed in ice-cold homogenization buffer (320 mM sucrose, 4 mM HEPES, PH 7.5, 1 mM EDTA, 1 mM EGTA, supplemented with complete EDTA-free protease inhibitor mixture (Roche), 1 mL per 100 mg of brain) and homogenized with a glass-Teflon homogenizer (40 passes) on ice. […] The final brain lysates (at 2 mg/mL protein concentration) were directly used for immunoblot analysis (input lanes) or for pull-down experiments.
Pull-down experiments. […] For immunoblotting analysis, proteins were transferred to nitrocellulose membrane (0.2-μm pore size) (iBlot™ 2 Transfer Stacks, nitrocellulose, mini) using iBlot2 (invitrogen) and then probed with the primary antibodies mouse anti-SD clone 43N12 (1:250) or mouse monoclonal to GABAB1 subunit (abcam, 1:500) in combination with secondary peroxidase-coupled sheep anti-mouse IgG antibody (Cytiva, 1:5000).

[2] = biological target: T2, Sushi domains (SD1/2) protein of the GABAB1a (GB1a) subunit, recombinant; assay: FP competition
T2 construct: domain: Sushi domains (SD1/2); also called SDs; sushi domain 1/2 (SD1/2) protein
T2 sequence (Q9Z0U4 29-158): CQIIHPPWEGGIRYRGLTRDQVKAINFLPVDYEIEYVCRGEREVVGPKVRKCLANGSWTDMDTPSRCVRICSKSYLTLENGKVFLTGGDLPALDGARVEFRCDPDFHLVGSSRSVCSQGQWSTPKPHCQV
Experimental: Fluorescence polarization (FP). FP assay was employed to determine the binding affinity of peptides in flat bottom black 384-well plates (Corning Life Science) using a Safire2 plate reader (Tecan). All experiments were conducted in 1×PBS (pH 7.4) containing 1% bovine serum albumin (BSA) at rt. The fluorescence polarization values were measured using excitation/emission wavelengths of 530/580 nm. […] For saturation assay, the millipolarization values were measured after mixing of probes with 12 serial 1 to 1 diluted concentrations of Sushi domains (SD1/2) protein. All experiments were performed in triplicate and the data were plotted to the one-site binding model using GraphPad Prism 9 to calculate the Kd of probes. […] The experiments were performed at least in triplicate and the data were fitted to the sigmoidal dose response curve using GraphPad Prism 9 to obtain the IC₅₀ of peptides. The Kᵢ values were calculated according to Nikolovska-Coleska et al³¹⁰.

T1 sequence (Q9WV18 20-960): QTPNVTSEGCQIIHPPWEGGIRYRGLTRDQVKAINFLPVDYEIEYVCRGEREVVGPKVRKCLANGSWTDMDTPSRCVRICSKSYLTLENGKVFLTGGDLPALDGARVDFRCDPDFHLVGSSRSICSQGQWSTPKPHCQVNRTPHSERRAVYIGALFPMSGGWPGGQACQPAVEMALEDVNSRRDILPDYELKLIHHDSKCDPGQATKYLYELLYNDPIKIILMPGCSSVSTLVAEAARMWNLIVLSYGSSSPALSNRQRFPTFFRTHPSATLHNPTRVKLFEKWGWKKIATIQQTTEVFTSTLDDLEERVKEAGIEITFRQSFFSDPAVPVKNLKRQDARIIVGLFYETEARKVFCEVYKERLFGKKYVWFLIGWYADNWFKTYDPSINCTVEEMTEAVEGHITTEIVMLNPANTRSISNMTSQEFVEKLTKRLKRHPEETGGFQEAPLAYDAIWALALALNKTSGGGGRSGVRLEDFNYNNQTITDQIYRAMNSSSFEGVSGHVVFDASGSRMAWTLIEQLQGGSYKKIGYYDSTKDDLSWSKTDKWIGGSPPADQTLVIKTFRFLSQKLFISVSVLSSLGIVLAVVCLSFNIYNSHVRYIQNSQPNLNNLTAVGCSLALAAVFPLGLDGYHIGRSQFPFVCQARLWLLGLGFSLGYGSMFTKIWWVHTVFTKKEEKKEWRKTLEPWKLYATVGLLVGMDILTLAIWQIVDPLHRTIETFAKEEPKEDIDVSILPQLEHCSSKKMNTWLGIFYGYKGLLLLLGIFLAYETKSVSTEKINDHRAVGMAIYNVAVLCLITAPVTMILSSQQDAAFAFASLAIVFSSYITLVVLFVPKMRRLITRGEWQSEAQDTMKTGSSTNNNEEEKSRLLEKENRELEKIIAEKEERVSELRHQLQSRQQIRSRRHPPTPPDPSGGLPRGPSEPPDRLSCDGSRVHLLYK

B1: Scr-20, scrambled version of peptide 20 ((2Nala)EDSDDYDDIDDDW) (peptide)
peptide: Ac-[2Nal]EDSDDYDDIDDDW-NH2
SMILES: CC[C@H](C)[C@H](NC(=O)[C@H](CC(=O)O)NC(=O)[C@H](CC(=O)O)NC(=O)[C@H](Cc1ccc(O)cc1)NC(=O)[C@H](CC(=O)O)NC(=O)[C@H](CC(=O)O)NC(=O)[C@H](CO)NC(=O)[C@H](CC(=O)O)NC(=O)[C@H](CCC(=O)O)NC(=O)[C@H](Cc1ccc2ccccc2c1)NC(C)=O)C(=O)N[C@@H](CC(=O)O)C(=O)N[C@@H](CC(=O)O)C(=O)N[C@@H](CC(=O)O)C(=O)N[C@@H](Cc1c[nH]c2ccccc12)C(N)=O
binding result [1]: no binding
Ki [2]: 31 µM
